Assay results taken from a protein production outcome set (Wang et al. 2014).

Experiment: label from the status in PepcDB records

**Q.** Which protein production does the source give for “MLDCIVVGAGPAGGSAAYHLARRDRQVLLLEQAQLPRQKACAGGVSPQVARWFDCDLRSVVDHGVDRLRFTWKLGDPVEAELPSEEPFWMVRRDRFDHFLVEQAANLGARIEDGAAVTAVSAEGDGWLVTVGDRAYRSRTLIAADGARGPLAQWLGFPSQKRRYAQACELDVPLPARPDSTAHFEFGLVRNGYIWVFPKSDGYSIGIGTFRGNDATDFRGLLETYLAGFGVSADLDRIVPHPLCVWDGSQPLHRGSALLVGEAASLTDPFTAEGIRPALLSGMRAAEAIDRAIAGDRNALAGYSRTIQQEWGDSMAWAKRISSVFYRVPNLGYQIGIKRPTAPQRMAQILVGELDYSDIATRVIRRLTTGFLPGMR” here?
**A.** failed

**Q.** With “MLDHFGSDPVFSPEQVLENRGRVAIFIDGSNLFYAALQLGIEIDYSKLLYRLTGGSRLLRSFFYTGVDRANEKQQGFLLWMRRNGYRVIAKDLVQLPDGSKKANLDVEIAVDMMALVGSYDTAVLVSGDGDLAYAVDAVSYRGARVEVVSLRSMTSDSLINVADRYIDLEQIQTDIQKLHRGQFSEPRLMEDRGGGTIELPSHE” as the sequence, how does the protein production read?
**A.** failed

**Q.** With “MLDLFGYKRRKTSVAQIGDTPLGGDFPIRIQSMANVSTMDTQASVDQAARIIDAGADYVRFTAQGVREAVNLQHIHAGLCRLGYHIPLVADIHFSPKAAEEALLHVEKVRINPGNFVEMKSGGNLTEEEAFDLGHKAVRERFGSFVEDAKRLGRAIRIGVNHGSLSERMLTRYGDTAEGMVQSCMEYLDVCHEHEFDDVVISMKASNTLVMTAAVRLLVERMDAADMHYPLHIGVTEAGDGEDGRIKSAVGIGSLLADGIGDTIRVSLSEDPEHEIPVARKLLAYIEKRNGHPSVAVPQPDRYDRDKLRRQETYAVGDFIGSKHIPIVISDRRQGDDHFDTELLPDIVLGADGRYYREDMLLENIVFRSIRQDDLTDDCLQTIEAISDTVIILESVGINPVAEWRAMLHRLELAGCRCPVILHRRYDCTDLEDLQLQASADMGAILLEGRGNGLMITADKLPSVAVNHLAFGILQATR” as the sequence, how does the protein production read?
**A.** failed

**Q.** For “MLDNAIPQGFEDAVELRRKNRETVVKYMNTKGQDRLRRHELFVEDGCGGLWTTDTGSPIVIRGKDKLAEHAVWSLKCFPDWEWYNIKVFETDDPNHFWVECDGHGKILFPGYPEGYYENHFLHSFELDDGKIKRNREFMNVFQQLRALSIPVPQIKREGIPT”, which protein production is on record?
**A.** not failed

**Q.** For “MLDPARSYDLIGDVHGCALTLEHLLDRLGYHKQAGVWRHPSRMAVFLGDIIDRGPRIRESLHIVHDMVEAGQALCIMGNHEFNALGWSTPAAEGSGKQFVREHTPRHARLIHETLTQFEQHPGDWHDFLQWFYELPLFVDAGRFRVVHACWDAGLIAPLRQQYPNGCIDREFLQSAAVPDSFACTAFDRLLRGTDMRLPHGLTMTSGDGLTRAFFRTKFWEDDPQTYGDIVFQPDALPEPVARTPLSPAEKNSLLRYGAEEPMLFVGHYWRSGKPAPIRPNLACLDYSAVLYGKLAAYRLDQETRLDPNKFVWVDVERPEVVRLEHHHHHH”, which protein production is on record?
**A.** failed

**Q.** With “MLDPHSRMPLYHQIESHLREVIRSGKWQAGEAIPPERLLIEQYGVSRITIRQALANLVAAGLLYRKHGRGTFVAGAKERPITESLANLTGHLEELQLRGLDPRVRVLALETRPMIAEVAEALQRSPGAEGWYLYRIVTVEQQPLMLSTVWLPCDLGVELNEELLKQHGMALLLTHNGIAPLRGSQRIGAMSAGPEEARLLGVRAGEAVLRVSRVIHGAADRPLVWFRTLYRSDRYEYEVELKRGRPHA” as the sequence, how does the protein production read?
**A.** failed

**Q.** With “MLDRLLGRVHDTKHAAPILRGYLWWGLLLRAVLLLALGTLLVVEGNVLAEWLLTVRPPALPQEDVEELTAVSYTVIVVLLMVGTGARWQLLRRLEAAEAVPESAPSSAEEAPPLGR” as the sequence, how does the protein production read?
**A.** failed

**Q.** Which protein production does the source give for “MLDSFKSALQQFAASIRFKFKSLRSYKYVPQIDSRDCGVAALASIAKYYGSDYSLAHLRELAKTSKEGTTALGIVEAAKKMKFETRAIKADMSLFDVEDIPYPFIVHIVKDGKLQHYYVVYGQEKEKVIIGDPDPTVKIATPVQIAICRRMDRCCYFSGT” here?
**A.** failed

**Q.** With “MLDSHLHPRLKPLLNAVAGALDRPGISPDGLTLVGFAIGVLALPFLALGWYGAALAAILLNRLLDGLDGALARRRGLTDAGGFLDIALDFLFYALVPFGFILADPLNNALAGGWLLFAFIGTGSSFLAFAALAARHQIANPGYAHKSLYYLGGLTEGTETILLFVLGCLFPAHFAWLAWLFGALCWLTTATRICSGYQTLKRVTTTA” as the sequence, how does the protein production read?
**A.** failed

**Q.** With “MLDVAIIGGGPAGLSAGLYATRGGLKNVVMFEKGMPGGQITSSSEIENYPGVAQVMDGISFMAPWSEQCMRFGLKHEMVGVEQILKNSDGSFTIKLEGGKTELAKAVIVCTGSAPKKAGFKGEDEFFGKGVSTCATCDGFFYKNKEVAVLGGGDTALEEALYLANICSKIYLIHRRDEFRAAPSTVEKVKKNEKIELITSASVDEVYGDKMGVAGVKVKLKDGSIRDLNVPGIFTFVGLNVRNEILKQDDSKFLCNMEEGGQVSVDLKMQTSVAGLFAAGDLRKDAPKQVICAAGDGAVAALSAMAYIESLH” as the sequence, how does the protein production read?
**A.** not failed

**Q.** With “MLEAPLLSICIPAYNRPNWLQRGLESIAVGEGSDIEIVITDDSDTDQGQAIASEVLKNWSGSWCYEHHQQPLGMAQNWNRAIQWATGQYVMVLHDDDFFLPQGLGLLVNKLRQLGSSSPVLLFGVRVVDAQERVVKRQGFRQDKLLPPHDALIRLFSDSSFVRFPAMVIRRDLFTEVGYFNPDWREPCDLEMWMRLFARYGVYCCREATVAYRVHGQALTMGSFHGETVNILLRLFGELEKLNILTTRDIEFCKGLFFHQYILAGAWRQLRRRRWREFKQVMGLFDLPELKSLSCPVKWRFLRGLFSLTLEHHHHHH” as the sequence, how does the protein production read?
**A.** failed

**Q.** For “MLEGESAPEPVIEISKLELTDYVKCNLPPEVIKYYESELELLTQEIKSEKKNPAFAYCRRGAIYRKLGKLQSAMNDLQETIFVEPLFLNAYWHRHFIYLFQDKINDALDDLNFITKYNKNHAEAYLSKAEIFREKNDITLAILNYSQAIKCRPKDASLYFKRGEMYEKTNKVLAIDDFSKGLDQAVTHVTESAQIFPPLLGQNDCIYYDPKRSDALWKRGMFYFENENWTGAVYDFTSLLKLEPHNSQARTNRGRAYFKRNLFKQATEDFSAAIHSDPNNWLALYYRACLFRKCSPQRALQDYSVSVSVSVLCSPGFKLFIYKVNGMSEFTTSFHEFVNCDCHVLINDGYDNLNCFLHRGILYTELKFWMLAVCDFETVVTLERIKAIISSRGQYLLMMKSYDLAKLTIFQVAEMNKGVIELSPIQEALIYSFCENHDKAIHVLEGVIANKPDISTYALLAKAQMKAKRIKESVRLFKKALELYTFSDKGPAATSVSADCLYNLGLCYMEEGNFQMNYKLAITDLTTAVGMDKNSYTAFYNRALCYTKIKKHEMALRDYGIVLLLQAGETIALNTLVNRGLIYTELEQYGFALEDFKEASMISETSVKLCQATAMCHHRIKEFQGAVEFFTRAIKINPRYLDAYIGRGNSYMEYEQNKAMIQAQKDFLRALHLDPSNLKARISLGYNLQAQGKFQKAWQHFTIGIEANPKNYLAYEGRAVVCLQMSNYFAAMQDINCAIKINSTAEFLTNRGVIHEFMGQQQNAMADYQAAISLDPNYSLAYFNAGNIYLHHRQFSQATDYFSTALKLNPENECALMNRAVTNSVLKKYEEAEKDFSHAMELCPHWAALYFNRASFYVYLKKYELAEEDLDRALSLKPDDAIMYNLRAQVRGKIGLIEEAMCDYNQALDLEEYSKAM”, which protein production is on record?
**A.** failed

**Q.** With “MLEHFRAGWAKVMNPIADALLRAHVTPDVVTWIGTIGAVLMALICFPQGWLWQGPWLVTLFIFSDSLDGNMARKLGRHSQWGSFLDSTLDRFGDAAIFTGVALYFAGPGNSVLWTAMACAALVFGMATSYVRAKAESLALEAKVGIATRADRLLVSLVAIEITGLARVGAFPHWCVVALPIALCYLTLAGAITVVQRMVAVRRACES” as the sequence, how does the protein production read?
**A.** failed

**Q.** Which protein production does the source give for “MLEKELSFADLSISLSELYEAMGYADAVPDEAVEKEVRGVLGRVEAVTSPRFCFFISGGELDESKDSLSVGDTCFSIGKIITRQLRGSESFAFFAATAGTGFERFQHTLQQEGDMVKVYIADAIGSVIAEKTADCMEIALDEYIRDRGWRHTNRFSPGYCGWHVSEQKKLFPLFPSAEPCGIRLTDSGLMLPIKSVSGVIGLGDGVRKLEYTCGLCTYDRCYRRKQRGLEHHHHHH” here?
**A.** not failed

**Q.** With “MLEKLIERVLFATRWLLAPLCIAMSLVLVVLGYVFMKELWHMLSHLNTISETDLVLSALGLVDLLFMAGLVLMVLLASYESFVSKLDKVDASEITWLKHTDFNALKLKVSLSIVAISAIFLLKRYMSLEDVLSSIPKDTPLSHNPIFWQVVIHLVFVCSALLAAVTNNIAFSQNKAH” as the sequence, how does the protein production read?
**A.** failed
